Results from US20180346592A1 (MOGAM INSTITUTE FOR BIOMEDICAL RESEARCH, published 2018).

Experiments:
[1] = target: T1, GPC3 on the surface of hepatic cancer cell lines (SK-Hep1-GPC3 transfectant, HepG2, Huh7, Hep3B, SNU398) (human, UniProt P51654 25-554); experiment: FACS, SK-Hep1-GPC3 cells, 1 ug antibody; lower right panel
T1 construct: Species is not restated for the cells (hepatic cancer cell lines, or SK-Hep1 transfected with pCMV/GPC3); also called glypican 3
Procedure: (§1) After detaching SK-Hep1-GPC3 cells by adding a TrypLE Express solution thereto, the detached SK-Hep1-GPC3 cells were put into a 50 mL tube and centrifuged at room temperature and 2000 rpm for 3 minutes to remove a culture medium, followed by washing with PBS once. The resultant was suspended using a FACS buffer, transferred to a round bottom tube, and centrifuged at room temperature and 2000 rpm for 3 minutes. A supernatant was removed, and the resultant was suitably dissolved using the FACS buffer so as to have a concentration of 4×10⁵ ea/mL. Then, a candidate antibody (1 μg) was added thereto at 4° C., and in an […] control group, a human IgG (1m, Sigma) was added instead of the candidate antibody. After 1 hour, the resultant was washed with the FACS buffer two times, a goat anti-human IgG antibody and FITC conjugated were added thereto at an amount of 1 μL per sample and bound thereto at 4° C. for 30 minutes. After collecting cells by centrifugation at 2000 rpm for 3 minutes, the cells were re-suspended by adding a fixation buffer (500 μL), and measured using a FACS calibur (FIG. 5).

[2] = target: T1, GPC3 on the surface of hepatic cancer …; experiment: FACS, HepG2 cells, 1 ug antibody; lower right panel
[3] = target: T1, GPC3 on the surface of hepatic cancer …; experiment: FACS, HepG2 cells, 1 ug antibody; upper right panel (Synthetic library)
[4] = target: T1, GPC3 on the surface of hepatic cancer …; experiment: FACS, SK-Hep1-GPC3 #9 cells, 1 ug antibody; upper right panel
Procedure: as §1

Row | Binder | Mean, FL2-H [1] | Mean, FL2-H [2] | Mean, FL2-H [3] | Mean, FL2-H [4]
1 | clone GX253 (scFv, V domains shown, scFv library clone tested as culture supernatant) VH: EVQLVESGGGLVKPGGSLRLSCAASGFTFSDYYMSWIRQAPGKGLEWVSYISSSGTTIYYADSVKGRFTISRDNAKKSLYLQMNSLRAEDTAVYYCARVRDSSGFWGRGTLVTVSS VL: QSVLTQPPSVSAAPGQKVTISCSGSSSNIGNNYVSWYQQLPGTAPKLLIYDNNKRPSGIPDRFSGSKSGTSATLGITGLQTGDEADYYCGTWDSSLSAWVVGGGTKLTVLG | 13.7 | 6.12 | – | –
2 | clone GX248 (scFv, V domains shown, scFv library clone tested as culture supernatant) VH: QMQLVQSGAEVKKPGASVKVSCKASGGTFSSYAISWVRQAPGQGLEWMGGIIPIFGTANYAQKFQGRVTITADESTSTAYMELSSLRSEDTAVYYCARVRGTGPRGGTFDYWGQGTLVTVSS VL: QSVLTQPPSVSAAPGQKVTISCSGSSSNIGNNYVSWYQQLPGTAPKLLIYDNNKRPSGIPDRFSGSKSGTSATLGITGLQTGDEADYYCGTWDSSLSAWVFGGGTKLTVLG | 13.3 | 5.71 | – | –
3 | clone GX234 (scFv, V domains shown, scFv library clone tested as culture supernatant) VH: QVQLVQSGAEVKKPGASVKVSCKASGYTFTSYGISWVRQAPGQGLEWMGWISAYNGNTNYAQKLQGRVTMTTDTSTSTAYMELRSLRSDDTAVYYCARVGLGDFWSGDYYYYYYGMDVWGQGTTVTVSS VL: SSELTQDPAVSVALGQTVRITCQGDSLRSSYASWYHQKPGQAPVLVMYGKNNRPSGIPDRFSGSSSGNTASLTITGAQAEDEADYYCHSRDSTGSHPNWVFGGGTKLTVLG | 62.9 | 12.6 | – | –
4 | clone GX225 (scFv, V domains shown, scFv library clone tested as culture supernatant) VH: QVQLVQSGAEVKKPGASVKVSCKASGYTFTSYYMHWVRQAPGQGLEWMGIINPSGGSTSYAQKFQGRVTMTRDTSTSTVYMELSSLRSEDTAVYYCARESGPSGGMDVWGQGTTVTVSS VL: SYELTQPPSVSVSPGQTARITCSGDALPKQYAYWYQQKPGQAPVLVIYKDSERPSGIPERFSGSSSGTTVTLTISGVQAEDEADYYCSSYTSSSTRVVFGGGTKLTVLG | 37.8 | 9.81 | – | –
5 | clone GX207 (scFv, V domains shown, scFv library clone tested as culture supernatant) VH: EVQLVQSGAEVKKPGASVKVSCKASGYTFTSYGISWVRQAPGQGLEWMGWISAYNGNTNYAQKLQGRVTMTTDTSTSTAYMELRSLRSDDTAVYYCAREGIAAAGYYYGMDVWGQGTTVTVSS VL: QSALTQPPSVSGSPGQSVTISCTGTSSDVGGYNRVSWYQQPPGTAPKLMIYEVSNRPSGVPDRFSGSKSGNTASLTISGLQAEDEADYYCSSYTSSTTYVFGTGTKVTVLG | 9.91 | 5 | – | –
6 | clone GX206 (scFv, V domains shown, scFv library clone tested as culture supernatant) VH: QLQLQESGPGLVKPSETLSLTCTVSGGSISSSSYYWGWIRQPPGKGLEWIGSIYYSGSTYYNPSLKSRVTISVDTSKNQFSLKLSSVTAADTAVYYCARLGDYGGNGYYFDYWGQGTLVTVSS VL: QSVLTQPPSVSAASGQKVTVSCSGSSSNIGKNGVSWHQQLPGTAPKLLIYENNRRPSEIPDRFSGSKSGTSATLAITGLQTGDEADYYCGTWDSSLNAGVFGTGTKVTVLG | 14.9 | 5.08 | – | –
7 | clone GX119 (scFv, V domains shown, scFv library clone tested as culture supernatant) VH: EVQLVESGGGVVQPGRSLRLSCAASGFTFSSYGMHWVRQAPGKGLEWVAVIWYDGSNKYYADSVKGRFTISRDNSKNTLYLQMNSLRAEDTAVYYCARDRSWNYYGMDVWGQGTTVTVSS VL: not shown | 13.3 | 5.62 | – | –
8 | clone GS011 (scFv, V domains shown, scFv library clone tested as culture supernatant) VH: EVQLLESGGGLVQPGGSLRLSCAASGFTFSNYAMSWVRQAPGKGLEWVSGISPGGSSIYYADSVKGRFTISRDNSKNTLYLQMNSLRAEDTAVYYCARYAVYFLRSHGSYDYGMDVWGQGTLVTVSS VL: not shown | – | – | 6.5 | 22.9
9 | clone GX099 (scFv, V domains shown, scFv library clone tested as culture supernatant) VH: EVQLVESGAEVKKPGASVKVSCKASGYTFTSYYMHWVRQAPGQGLEWMGIINPSGGSTSYAQKFQGRVTMTRDTSTSTVYMELSSLRSEDTAVYYCARYSSSPAKIDYWGQGTLVTVSS VL: QSVLTQPPSVSAAPGEKVIISCSGSSSNIGKYYVSWYQQLPGTAPKLLIYDNNKRPSGIPDRFSGSKSGTSATLGISGLQTGDEADYYCGTWDSSLNLVFGTGTKVTVLG | 40.1 | 13.2 | – | –
10 | clone GX090 (scFv, V domains shown, scFv library clone tested as culture supernatant) VH: QVQLVQSGAEVKKPGASVKVSCKASGYTFTSYGISWVRQAPGQGLEWMGWISAYNGNTNYAQKLQGRVTMTTDTSTSTAYMELRSLRSDDTAVYYCARGSSFSGFDPWGQGTLVTVSS VL: QSVLTQPPSLSAAPGQKVTISCSGSSSNIGKNHVSWYQQFPGTAPKFLIYDNHRRPSGIPDRFSGSKSGTSATLDITGLQTGDEATYYCGTWDSSLSAVVFGGGTKLTVLG | 10.2 | 3.49 | – | –
11 | clone GS009 (scFv, V domains shown, scFv library clone tested as culture supernatant) VH: EVQLLESGGGLVQPGGSLRLSCAASGFTFSNYSMSWVRLAPGKGLEWVSVISPSGGNTYYADSVKGRFTISRDNSKNTLYLQMNSLRAEHTAVYYCARYRVKQMLNQRSYSNAMDVWGQGTLVTVSS VL: QSVLTQPPSASGTPGQRVTISCTGSSSNIGNNYVSWYQQLPGTAPKLLIYDDSQRPSGVPDRFSGSKSGTSASLAISGLRSEDEADYYCGSWDASLSGYVFGGGTKLTVLG | – | – | 8.12 | 12.3
12 | clone GS008 (scFv, V domains shown, scFv library clone tested as culture supernatant) VH: EVQLLESGGGLVQPGGSLRLSCAASGFTFSNYAMSWVRQAPGKGLEWVSVISPDNGSTYYADSVKGRFTISRDNSKNTLYLQMNSLRAEDTAVYYCARARVHCRRDQCYSYGMDVWGQGTLVTVSS VL: QSVLTQPPSASGTPGQRVTISCTGSSSNIGSNNVTWYQQLPGTAPKLLIYANSQRPSGVPDRFSGSKSGTSASLAISGLRSEDEADYYCGAWDSSLNGYVFGGGTKLTVLG | – | – | 8.85 | 4.89
13 | clone GS007 (scFv, V domains shown, scFv library clone tested as culture supernatant) VH: EVQLLESGGGLVQPGGSLRLSCAASGFTFSNYSMSWVRQAPGKGLEWVSVISHDGRSKYYADSVKGRFAISRDNSKNTLYLQMNSLRAEDTAVYYCAKFRVWKRTNAHSYANAMDVWGQGTLVTVSS VL: QSVLTQPPSASGTPGQRATISCTGSSSNIGSNSVSWYQQLPGTAPKLLIYANSNRPSGVPDRFSGSKSGTSASLAISGLRSEDEADYYCGTWDASLSAYVFGGGTKLTVLG | – | – | 11.3 | 3.94
14 | clone GS005 (scFv, V domains shown, scFv library clone tested as culture supernatant) VH: EVQLLESGGGLVQPGGSLRLSCAASGFTFSNYAMSWVRQAPGKGLEWVSVISPDSSSKYYADSVKGRFTISRDNSKNTLYLQMNSLRAEDTAVYYCARAAVRRYGPSPYYYYAMDVWGQGTLVTVSS VL: QSVLTQPPSASGTPGQRVTISCTGSSSNIGNNYVTWYQQLPGTAPKLLIYADSHRPSGVPDRFSGSKSGTSASLAISGLRSEDEADYYCATWDYSLSGYVFGGGTKLTVLG | – | – | 11 | 4.98
15 | clone GS001 (scFv, V domains shown, scFv library clone tested as culture supernatant) VH: EVQLLESGGGLVQPGGSLRLSCAASGFTFSSYSMSWVRQAPGKGLEWVSGISPSGGNKYYADSVKGRFTISRDNSKNTLYLQMNSLRAEDTAVYYCARALLGCKSAYCYYAMDVWGQGTLVTVSS VL: QSVLTQPPSASGTPGQRVTISCTGSSSNIGSNAVNWYQQLPGTAPKLLIYADSKRPSGVPDRFSGSKSGTSASLAISGLRSEDEADYYCGSWDSSLSGYVFGGGTKLTVLG | – | – | 8.76 | 5.32
16 | clone GX118 (scFv, V domains shown, scFv library clone tested as culture supernatant) VH: QLQLQESGPGLVKPSETLSLTCTVSGGSISSSSYYWGWIRQPPGKGLEWIGSIYYSGSTYYNPSLKSRVTISVDTSKNQFSLKLSSVTAADTAVYYCARLRSFADNYVWGSYASYYFDYWGRGTLVTVSS VL: QSVVTQPPSVSAAPGQRVTISCSGSSSNIGNNFVSWHQQLPGTAPKLLIYDNNKRPSGIPDRFSGSKSGTSATLGITGLQTGDEADYYCGTWDNSLGTGVFGGGTKLTVLG | 5.95 | – | – | –
17 | clone GS017 (scFv, V domains shown, scFv library clone tested as culture supernatant) VH: EVQLLESGGGLVQPGGSLRLSCAASGFTFSGYAMSWVRQAPGKGLEWVSGISPGDGSTYYADSVKGRFTISRDNSKNTLYLQMNSLRAEDTAVYYCARVARMCQGWRCSYADGMDVWGQGTLVTVSS VL: QSVLTQPPSASGTPGQRVTISCTGSSSNIGNNSVYWYQQLPGTAPKLLIYSDSHRPSGVPDRFSGSKSGTSASLAISGLRSEDEADYYCGTWDSSLSGYVFGGGTKLTVLG | – | – | 12.2 | 27.5
18 | clone GS013 (scFv, V domains shown, scFv library clone tested as culture supernatant) VH: EVQLLESGGGLVQPGGSLRLSCAASGFTFSNYAMSWVRQAPGKGLEWVSSISSGGGSTYYADSVKGRFTISRDNSKNTLYLQMNSLRAEDTAVYYCARKKSQFDYWGQGTLVTVSS VL: not shown | – | – | 6.07 | 7.43
